Measured values from patent US20240124553A1.
Like-named read-outs stand apart in the source and are kept apart here.

B1: MXRA8-2-Fc (extracellular domain of human MXRA8-2 fused to mouse IgG2b Fc) (Fc fusion)
chain: ISVLLHSGSSVPAAAGSSVVSESAVSWEAGARAVLRCQSPRMVWTQDRLHDRQRVLHWDLRGPGGGPARRLLDLYSAGEQRVYEARDRGRLELSASAFDDGNFSLLIRAVEETDAGLYTCNLHHHYCHLYESLAVRLEVTDGPPATPAYWDGEKEVLAVARGAPALLTCVNRGHVWTDRHVEEAQQVVHWDRQPPGVPHDRADRLLDLYASGERRAYGPLFLRDRVAVGADAFERGDFSLRIEPLEVADEGTYSCHLHHHYCGLHERRVFHLTVAEPHAEPPPRGSPGNGSSHSGAPGPDPTLARGHNVINVIVPESRAHASVRSPSGPISTINPCPPCKECHKCPAPNLEGGPSVFIFPPNIKDVLMISLTPKVTCVVVDVSEDDPDVQISWFVNNVEVHTAQTQTHREDYNSTIRVVSTLPIQHQDWMSGKEFKCKVNNKDLPSPIERTISKIKGLVRAPQVYILPPPAEQLSRKDVSLTCLVVGFNPGDISVEWTSNGHTEENYKDTAPVLDSDGSYFIYSKLNMKTSKWEKTDSFSCNVRHEGLKNYYLKKTISRSPGK
B2: Mxra8-Fc (extracellular domain of mouse Mxra8 fused to mouse IgG2b Fc) (Fc fusion)
chain: SGPSGTAAASSSLVSESVVSLAAGTQAVLRCQSPRMVWTQDRLHDRQRVVHWDLSGGPGSQRRRLVDMYSAGEQRVYEPRDRDRLLLSPSAFHDGNFSLLIRAVDRGDEGVYTCNLHHHYCHLDESLAVRLEVTEDPLLSRAYWDGEKEVLVVAHGAPALMTCINRAHVWTDRHLEEAQQVVHWDRQLPGVSHDRADRLLDLYASGERRAYGPPFLRDRVSVNTNAFARGDFSLRIDELERADEGIYSCHLHHHYCGLHERRVFHLQVTEPAFEPPARASPGNGSGHSSAPSPDPTLTRGHSIINVIVPEDHTHPSGPISTINPCPPCKECHKCPAPNLEGGPSVFIFPPNIKDVLMISLTPKVTCVVVDVSEDDPDVQISWFVNNVEVHTAQTQTHREDYNSTIRVVSTLPIQHQDWMSGKEFKCKVNNKDLPSPIERTISKIKGLVRAPQVYILPPPAEQLSRKDVSLTCLVVGFNPGDISVEWTSNGHTEENYKDTAPVLDSDGSYFIYSKLNMKTSKWEKTDSFSCNVRHEGLKNYYLKKTISRSPGK
B3: Mxra8-Fc (mouse Mxra8 extracellular domain fused to mouse IgG2b Fc) (Fc fusion)
chain: B2 chain

What was measured:
[1] = biological target: CHIKV virus-like particles (strain 37997) (chikungunya virus)
[2] = biological target: CHIKV strain 181/25 (virions; also E2-E1 shown on infected cells) (chikungunya virus); experiment: ELISA, CHIKV-181/25 captured with a human anti-CHIKV mAb, anti-mouse IgG-HRP
[3] = biological target: CHIKV virus-like particles (strain 37997) (chikungunya virus); remark: listed apart in the source
[4] = biological target: CHIKV E2-6K-E1 envelope proteins (strain S27) with E2 Q195A (Chikungunya virus strain S27) (UniProt Q8JUX5); experiment: flow cytometry, transfected 293T cells

Row | Binder | EC50 (read off the curve) [1] [µg/mL] | EC50 (read off the curve) [2] [µg/mL] | EC50 (read off the curve) [3] [µg/mL] | Binding Reactivity (% WT) [4] [% WT]
1 | B1 | 0.05 |  |  | 
2 | B2 | 0.01 | 0.1 | 0.01 | 
3 | B3 |  |  |  | 82.4
